Our source for the Kd and IC50 values is patent US20190218553, “VON WILLEBRAND FACTOR (VWF)-TARGETING AGENTS AND METHODS OF USING THE SAME” (DUKE UNIVERSITY, published 2019).

The target in data set [1] is T1, von Willebrand factor (VWF) (Homo sapiens, UniProt P04275 P04275:764-2813). The experiment in a line: filter; Bmax 89%; 2 mM CaCl2, 37 C. The conditions noted are these: tags: factor VIII free human purified VWF, Haematologic Technologies Inc; label: 5'-32P. The procedure: (§1) Affinity constants (Kd values) were determined using double-filter nitrocellulose filter binding assays (Rusconi et al, Thromb. Haemost. $4:841-848 (2000)). All binding studies were performed in binding buffer F (20 mM HEPES, pH 7.4, 150 mM NaCl, 2 mM CaCl₂, and 0.01% BSA) at 37° C. Human purified VWF (factor VIII free) was purchased from Haematologic Technologies Inc. (Essex Junction, Vt.) and used in the double-filter nitrocellulose filter binding assay to determine the Kd of the aptamers. Briefly, RNA were end-labeled at the 5′ end with T4 polynucleotide kinase (New England Biolabs, Beverly, Mass.) and [γ³²P] ATP (Amersham Pharmacia Biotech, Piscataway, N.J.) (Fitzwater and Polisky, Methods Enzymol. 267:275-301 (1996)). End-labeled RNA was diluted in binding buffer F, heat denatured at 65° C. for 5 minutes, and subsequently equilibrated at 37° C. Direct binding was performed by incubating trace ³²P-RNA with varying concentrations of VWF protein in binding buffer F at 37° C. for 5 min. The fraction of the nucleic acid-protein complex which bound to the nitrocellulose membrane was quantified with a phosphorimager (Molecular Dynamics, Sunnyvale, Calif.). Non-specific binding of the radiolabeled nucleic acid was subtracted out of the binding such that only specific binding remained (Wong and Lohman, Proc. Natl. Acad. Sci. USA 90:5428-5432 (1993)).

The target in data set [2] is T1, von Willebrand factor (VWF). The experiment in a line: filter; Bmax 43%; 2 mM CaCl2, 37 C. The conditions noted are these: tags: factor VIII free, Haematologic Technologies Inc; label: 5'-32P. On the procedure:
as §1

Data set [3] has the same target. The experiment in a line: filter; Bmax 37%; 2 mM CaCl2, 37 C. Conditions: tags: factor VIII free, Haematologic Technologies Inc; label: 5'-32P. On the procedure:
as §1

Data set [4] shares this target. The experiment in a line: filter; Bmax 65%; 2 mM CaCl2, 37 C. The conditions noted are these: tags: factor VIII free, Haematologic Technologies Inc; label: 5'-32P. The procedure: as §1
The target in data set [5] is von Willebrand factor (VWF) in whole blood (Homo sapiens, UniProt P04275 P04275:764-2813). Description: inhibition; platelet adhesion to collagen under high shear, human whole blood; text gives 72.6. Conditions: protein: extract; tags: endogenous, hirudin-anticoagulated human whole blood. On the procedure:
The Venaflux™ microfluidics system (Cellix, Dublin, Ireland) measures platelet adhesion on a collagen surface. Human blood was collected into hirudin tubes from healthy volunteers by vena puncture. An aliquot containing 300 μl of whole blood treated with aptamer or platelet-binding buffer alone was flowed through collagen-coated micro-channels at 60 dynes for 3 minutes. Channels were then rinsed with saline for 3 minutes to wash away RBC and unbound platelets. Venaflux imaging software and Image Pro Plus were used to image bound platelets and calculate covered surface area. Aptamer was incubated at 95° C. for 3 minutes, placed on ice for 3 minutes, then incubated for 10 minutes at room temperature. After cooling, aptamer was kept on ice until use. Total surface area covered by bound platelets in treated blood was expressed as a percentage of total coverage in negative control blood. Statistical significance was determined by analysis of variance; IC₅₀ of the aptamer was calculated using a fitted linear regression curve.
To evaluate the inhibitory effect of the aptamer on platelet adhesion, human whole blood samples were treated with aptamer starting at 900 nmol/L with 2-fold dilutions to 14 nmol/L and tested by measuring platelet adhesion under high-shear stress. The aptamer prevented platelet adhesion to the collagen surface in a dose-dependent manner (FIG. 20-22).

Data set [6] concerns the target T1, von Willebrand factor (VWF). Description: filter; Bmax 56%; 2 mM CaCl2, 37 C. Conditions: tags: factor VIII free, Haematologic Technologies Inc. On the procedure:
as §1

For data set [7] the target is unchanged. Description: filter; Bmax 64%; 2 mM CaCl2, 37 C. The conditions noted are these: tags: factor VIII free, Haematologic Technologies Inc; label: 5'-32P. The procedure: as §1
Data set [8] shares this target. The experiment in a line: filter; Bmax 75%; 2 mM CaCl2, 37 C. The conditions noted are these: Haematologic Technologies Inc, label: 5'-32P. On the procedure: as §1
The target is the same in data set [9]. Description: filter; Bmax 84%; 2 mM CaCl2, 37 C. Conditions: Haematologic Technologies Inc, label: 5'-32P. The procedure:
as §1

The target is the same in data set [10]. The experiment in a line: filter; Bmax 63%; 2 mM CaCl2, 37 C. The conditions noted are these: tags: factor VIII free, Haematologic Technologies Inc; label: 5'-32P. On the procedure: as §1
The target is the same in data set [11]. The experiment in a line: filter; Bmax 72%; 2 mM CaCl2, 37 C. Conditions: tags: factor VIII free human purified VWF, Haematologic Technologies Inc; label: 5'-32P. On the procedure: as §1
Data set [12] has the same target. Description: filter; Bmax 70%; 20 mM HEPES pH 7.4, 150 mM NaCl, 2 mM CaCl2, 0.01% BSA, 37 C. The conditions noted are these: tags: factor VIII free, Haematologic Technologies Inc; label: 5'-32P. On the procedure:
as §1

[13] abbreviates: tags: factor VIII free human purified VWF.

B1: T59 vrt26 (ssRNA)
RNA: ACGAACUGCCCUCGAUCGACGCACAGACGU
modifications: 2'-F C9,C10,C11,C20,C22; ribo G21; rest 2'-OMe; 3' idT
Molecule B1 displayed a Kd in data set [1] of 18 nM. This lies in the double-digit nanomolar range.

B2: T22 (ssRNA)
RNA: GGACGAACUGCCCUCAGCUACUUUCAUGUUGCUGACGCACAGACGACUCGCUG
modifications: 2'-F C and U; 2'-OH A and G
Molecule B2 came in with a Kd in data set [2] of 28 nM. This counts as double-digit nanomolar.

B3: T93 vrt1 (ssRNA)
RNA: ACGAACUGCCCUCUAUUUCAUUUGACGCACAGACGU
modifications: 2'-F C2,U7,C9,C10,C11,U12,C26,C28,C34,U36; ribo A1,G3,G8,A25,G27,A29,G35; rest 2'-OMe; 3' idT
B3 returned a Kd in [1] of 0.8 nM.

B4: T74 (ssRNA)
RNA: CCCACGAACUGCCCUCGAUCGACGCACAGACGU
modifications: 2'-F C and U; 2'-OH A and G; 3' idT
B4 gave a Kd in data set [3] of 23 nM.

B5: T59 vrt15 (ssRNA)
RNA: ACGAACUGCCCUCGAUCGACGCACAGACGU
modifications: mAmCmGmAmAmCfUmGfCfCfCmUmCmGmAmUmCmGmAfCmGfCrAmCmAmGmAmCmGfU-idT
For the molecule B5, in data set [4], the Kd was determined as 32.5 nM.

B6: T79 vrt7 (DTRI-031) (ssRNA)
RNA: ACGAACUGCCCUCGAUCGACGCACAGACGUUUUUU
modifications: mAmCmGmAmAmCmUmGfCfCfCmUmCmGmAmUmCmGmAfCfGfCmAmCmAmGmAmCmGmUmUmUmUmUmU-idT
The molecule B6 had an IC50 in [5] of 72.5 nM. The molecule also had a dissociation constant (Kd) in [6] of 11.2 nM.

B7: T79 (ssRNA)
RNA: ACGAACUGCCCUCGAUCGACGCACAGACGUUUUUU
modifications: 2'-F C and U; 2'-OH A and G; 3' idT
B7 registered an equilibrium dissociation constant (Kd) in data set [7] of 1.6 nM.

B8: T79 vrt4 (ssRNA)
RNA: ACGAACUGCCCUCGAUCGACGCACAGACGUUUUUU
modifications: mAmCmGmAmAmCmUmGfCfCfCmUmCmGmAmUmCmGmAfCrGfCmAmCmAmGmAmCmGmUmUmUmUmUmU-idT
The molecule B8 came in with a dissociation constant (Kd) in data set [8] (tags: factor VIII free) of 13 nM.

B9: T59 vrt7 (ssRNA)
RNA: ACGAACUGCCCUCGAUCGACGCACAGACGU
modifications: mAfCmGmAmAmCfUrGfCfCfCfUmCmGmAmUmCmGrAfCrGfCrAmCmAmGmAfCmGfU-idT
B9 showed a Kd in [9] (tags: factor VIII free) of 0.8 nM. In other words, the sub-nanomolar range.

B10: T89 vrt1 (ssRNA)
RNA: ACGAACUGCCCUCGUAUUAUUUCGACGCACAGACGU
modifications: 2'-F C2,U7,C9,C10,C11,U12,C26,C28,C34,U36; ribo A1,G3,G8,A25,G27,A29,G35; rest 2'-OMe; 3' idT
B10 returned a Kd in [9] (setting [13]) of 1.2 nM. In other words, the single-digit nanomolar range.

B11: T89 vrt7 (ssRNA)
RNA: ACGAACUGCCCUCGUAUUAUUUCGACGCACAGACGU
modifications: 2'-F C9,C10,C11,C26,G27,C28; rest 2'-OMe; 3' idT
The molecule B11 had a Kd in data set [8] (setting [13]) of 38.5 nM.

B12: T81 (ssRNA)
RNA: ACGAACUGCCCUCGAUCGACGCACAGACGUACACA
modifications: 2'-F C and U; 2'-OH A and G; 3' idT
Take B12: the affinity in data set [10], expressed as Kd, was 4.2 nM.

B13: T84 vrt1 (ssRNA)
RNA: ACGAACUGCCCUCGAUCGACGCACAGACGUACACG
modifications: 2'-F C2,U7,C9,C10,C11,U12,C20,C22,C28,U30; ribo A1,G3,G8,A19,G21,A23,G29; rest 2'-OMe; 3' idT
Turning to B13, in data set [11], the affinity, expressed as Kd, was 1.7 nM.

B14: VWF9.14 full length (ssRNA)
RNA: GGGAGGACGAUGCGGUGGACGAACUGCCCUCAGCUACUUUCAUGUUGCUGACGCACAGACGACUCGCUGAGGAUCCGAGA
modifications: 2'-F C and U; 2'-OH A and G
In data set [12], B14 had a Kd of 12 nM.

For orientation: Kd means the constant that tells how readily two partners part at equilibrium. A higher Kd goes with a looser complex. Broadly, the IC50 is the concentration that inhibits the measured activity by half. Read a low IC50 as greater potency in that assay.
